Results published in US20110189178A1.

Experiments:
[1] = molecular target: recombinant human FcγRIIb (R&D Systems) (human) (UniProt P31994); experiment: Biacore SPR
[2] = molecular target: recombinant human FcγRIIb (R&D Systems) (human) (UniProt P31994); experiment: Biacore SPR, global Langmuir fit (mean ± SD, n = 4)
FcγRI (human) [3] = molecular target: FcγRI (human) (UniProt P12314); experiment: Biacore SPR [cont.]
FcγRIIaH (human) [4] = molecular target: FcγRIIaH (human) (UniProt P12318); experiment: Biacore SPR [cont.]
Chain of FcγRIIaH (human) (P12318 34-217): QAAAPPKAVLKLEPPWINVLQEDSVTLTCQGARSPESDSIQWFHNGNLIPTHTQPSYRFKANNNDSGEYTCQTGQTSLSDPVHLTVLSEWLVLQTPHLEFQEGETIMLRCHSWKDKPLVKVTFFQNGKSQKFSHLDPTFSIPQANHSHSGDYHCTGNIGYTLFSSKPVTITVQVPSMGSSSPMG

[5] = molecular target: human FcγRIIIa, V158 isoform (human) (UniProt P08637); experiment: Biacore SPR [cont.]
Chain of human FcγRIIIa, V158 isoform (human) (P08637 17-208 F176V limits assumed): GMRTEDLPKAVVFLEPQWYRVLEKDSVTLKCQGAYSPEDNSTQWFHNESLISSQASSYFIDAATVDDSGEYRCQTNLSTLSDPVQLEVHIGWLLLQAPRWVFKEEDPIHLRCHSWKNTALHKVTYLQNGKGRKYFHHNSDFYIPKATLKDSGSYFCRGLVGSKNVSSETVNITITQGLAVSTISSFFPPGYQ

[6] = molecular target: recombinant human FcγRIIb (R&D Systems) (human) (UniProt P31994); experiment: Biacore SPR [cont.]
[7] = molecular target: FcγRIIb on the cell surface (UniProt P31994); experiment: binding to FcγRIIb on the cell surface
Chain of FcγRIIb on the cell surface (P31994 43-310 limits assumed): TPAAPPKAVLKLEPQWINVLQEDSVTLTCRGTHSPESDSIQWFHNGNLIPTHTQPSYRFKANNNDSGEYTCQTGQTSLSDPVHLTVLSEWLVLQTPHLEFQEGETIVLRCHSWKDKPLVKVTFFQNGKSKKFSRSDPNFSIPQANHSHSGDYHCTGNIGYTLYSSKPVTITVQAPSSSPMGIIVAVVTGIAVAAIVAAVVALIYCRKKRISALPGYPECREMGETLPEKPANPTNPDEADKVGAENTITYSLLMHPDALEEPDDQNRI

FcγRI (human) [8] = molecular target: FcγRI (human) (UniProt P12314); experiment: Biacore SPR
FcγRIIIaF (human) [9] = molecular target: FcγRIIIaF (human) (UniProt P08637); experiment: Biacore SPR
Chain of FcγRIIIaF (human) (P08637 17-208 limits assumed): as the sequence (P08637 17-208 F176V limits assumed) above, with V160F counted along it

FcγRIIaH (human) [10] = molecular target: FcγRIIaH (human) (UniProt P12318); experiment: Biacore SPR
FcγRIIaR (human) [11] = molecular target: FcγRIIaR (human) (UniProt P12318); experiment: Biacore SPR
[12] = molecular target: human FcγRIIIa, V158 isoform (human) (UniProt P08637); experiment: Biacore SPR
FcγRIIIaF (human) [13] = molecular target: FcγRIIIaF (human) (UniProt P08637); experiment: Biacore SPR [cont.]
FcγRIIaR (human) [14] = molecular target: FcγRIIaR (human) (UniProt P12318); experiment: Biacore SPR [cont.]

Chain of recombinant human FcγRIIb (R&D Systems) (human) (P31994 46-217 limits assumed): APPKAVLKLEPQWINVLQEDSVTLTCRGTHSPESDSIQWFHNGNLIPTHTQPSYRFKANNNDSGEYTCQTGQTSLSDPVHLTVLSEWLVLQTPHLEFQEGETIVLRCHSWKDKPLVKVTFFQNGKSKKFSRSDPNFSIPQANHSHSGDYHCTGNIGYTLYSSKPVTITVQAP
Chain of FcγRI (human) (P12314 16-288 limits assumed): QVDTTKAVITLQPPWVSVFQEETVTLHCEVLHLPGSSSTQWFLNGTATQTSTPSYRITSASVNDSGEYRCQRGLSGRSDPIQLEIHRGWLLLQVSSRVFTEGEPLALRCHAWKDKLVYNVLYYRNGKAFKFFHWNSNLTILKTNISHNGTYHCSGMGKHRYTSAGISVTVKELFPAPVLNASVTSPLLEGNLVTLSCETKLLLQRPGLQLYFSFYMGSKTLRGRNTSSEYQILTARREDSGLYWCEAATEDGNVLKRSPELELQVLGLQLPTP

Row | Fold (KD native IgG1/KD variant) [1] [fold] | Kd [2] [nM] | Kd (FcγRI (human) [3]) [nM] | Kd (FcγRIIaH (human) [4]) [nM] | Kd [5] [nM] | Kd [6] [nM] | EC50 [7] [nM] | Kd (FcγRIIaR (human) [14]) [nM] | Fold (against native IgG1) [7] [fold] | Substance | other results
1 | 1.8 | 1000 | – | – | – | – | – | – | – | G236D (antibody) | –
2 | – | 25 | 3.71 | 2730 | 579 | 26.6 | 6 | – | – | G236D/S267E (antibody) | –
3 | – | 640 | – | – | – | – | – | – | – | L328F (antibody) | –
4 | – | 1800 | – | – | – | – | 440 | – | – | Native IgG1 (antibody) | Kd (FcγRI (human) [8]): 0.329 nM; Kd (FcγRIIIaF (human) [9]): 1350 nM; Kd (FcγRIIaH (human) [10]): 646 nM; Kd (FcγRIIaR (human) [11]): 859 nM; Kd [12]: 191 nM; Kd [1]: 1470 nM
5 | – | 380 | – | – | – | – | – | – | – | S239D (antibody) | –
6 | – | – | 0.0374 | 163 | – | 101 | – | 68.6 | – | S239D/I332E (antibody) | Kd (FcγRIIIaF (human) [13]): 28.2 nM
7 | 150 | 12 | 0.0142 | 510 | 51.2 | 13.3 | 2 | 7.16 | 220 | S239D/S267E (antibody) | Fold (FcγRI (human) [3]): 23.2; Fold (FcγRIIIaF (human) [13]): 2.62; Kd (FcγRIIIaF (human) [13]): 516 nM; Fold (FcγRIIaH (human) [4]): 1.27; Fold (FcγRIIaR (human) [14]): 120; Fold [5]: 3.74; Fold [6]: 111
8 | 30 | – | – | – | – | – | 25 | – | 18 | S267E (antibody) | –
9 | 430 | 4.2 | 0.22 | 923 | 5040 | 6.06 | 1.4 | 3.12 | 320 | S267E/L328F (antibody) | Fold (FcγRI (human) [3]): 1.5; Fold (FcγRIIaH (human) [4]): 0.7; Fold (FcγRIIaR (human) [14]): 275; Fold [5]: 0.038; Fold [6]: 242
